US7026443
Read-outs that look alike come from different tables or passages of the source.

Key:
[1] = molecular target: HLA-A*1101 (purified HLA class I molecule) (human)
[2] = molecular target: HLA-A*1101 (human); assay: competition with 125I-labelled standard probe peptide for purified HLA-A*1101, gel filtration
[3] = molecular target: HLA-A*0101 (human); assay: competition with 125I-labelled standard peptide 944.02 ([..]) for purified HLA-A*0101, gel filtration
[4] = molecular target: HLA-A*1101 (human); assay: competition with 125I-labelled standard peptide for purified HLA-A*1101, gel filtration
[5] = molecular target: HLA-A*0101 (human); assay: competition with 125I-labelled standard peptide for purified HLA-A*0101, gel filtration
[6] = molecular target: HLA-A*1101 (human); assay: inhibition of 125I-labeled standard peptide binding to purified HLA, gel filtration
[7] = molecular target: HLA-A*0301 (human); assay: as above
[8] = molecular target: HLA-A*2402 (human); assay: competition with 125I-labelled standard probe peptide for purified HLA-A*2402, gel filtration
[9] = molecular target: HLA-A*2402 (human); assay: competition with 125I-labelled standard peptide for purified HLA-A*2402, gel filtration
[10] = molecular target: HLA-A*0301 (human); assay: competition with 125I-labeled standard peptide for purified HLA-A*0301, gel filtration
[11] = molecular target: HLA-B*0702 (human); assay: competition with 125I-labelled standard peptide for purified HLA, gel filtration
[12] = molecular target: HLA-B*5401 (human); assay: as above
[13] = molecular target: HLA-B*5101 (human); assay: as above
[14] = molecular target: HLA-B*5301 (human); assay: as above
[15] = molecular target: HLA-B*3501 (human); assay: as above
[16] = molecular target: HLA-B*0702 (human); assay: competition with 125I-labeled standard peptide for purified HLA, gel filtration
[17] = remark: other sources report otherwise

Work on TGLYNLLIR (modifications not checked) [HPV18 E6 96-104 peptide …] yielded a relative binding ratio (IC50 of standard peptide / IC50 of test peptide) [1] of 0.0002.

In the case of LTTNIHPAK (modifications not checked) [HPV18 E1 571 …], the binding affinity ratio (IC50 of standard peptide / IC50 of test peptide) [2] is reported as 0.12.

For RFHNIAGHY (modifications not checked) [HPV18 E6 126-134 peptide …], the relative binding ratio (IC50 of standard peptide / IC50 of test peptide) [1] was 0.0002.

CIVYRDGNPY (modifications not checked) [HPV16 E6 58 …] gave a binding affinity ratio (IC50 of standard peptide / IC50 of test peptide) [3] of 0.0015.

NIHPAKDNR (modifications not checked) [HPV18 E1 574 …] gave a binding affinity ratio (IC50 of standard peptide / IC50 of test peptide) [2] of 0.0002.

AVCDKCLKFY (modifications not checked) [HPV16 E6 68 …] gave a binding affinity ratio (IC50 of standard peptide / IC50 of test peptide) [3] of 0.0095.

For HGDTPTLHEY (modifications not checked) [… (HPV16 E7, position 2, 10 amino acids)], the relative binding ratio (IC50 of standard peptide / IC50 of test peptide) [4, 17] was 0.0001 and the relative binding ratio (IC50 of standard peptide / IC50 of test peptide) [5, 17] was 0.003.

GTTLEQQY (modifications not checked) [HPV16 E6 92 GTTLEQQY] showed a binding affinity ratio (IC50 of standard peptide / IC50 of test peptide) [3] of 0.0006.

GMVVLLLVR (modifications not checked) [HPV16 E1 peptide … (position 272, 9 amino acids)] gave a binding affinity ratio (IC50 of standard peptide / IC50 of test peptide) [6] of 0.0082 and a binding affinity ratio (IC50 of standard peptide / IC50 of test peptide) [7] of 0.0036.

For QYNKPLCDLL (modifications not checked) [HPV16 E6 98 …], the relative binding ratio (IC50 of standard peptide / IC50 of test peptide) [8] was 0.0015 and the relative binding ratio (IC50 of standard peptide / IC50 of test peptide) (ratio to standard peptide) [9] was 0.0015.

AICIEKQSR (modifications not checked) [HPV16 E1 peptide … (position 112, 9 amino acids)] gave a relative binding ratio (IC50 of standard peptide / IC50 of test peptide) (ratio to standard peptide) [10] of 0.001, a binding affinity ratio (IC50 of standard peptide / IC50 of test peptide) [6] of 0.0057 and a binding affinity ratio (IC50 of standard peptide / IC50 of test peptide) [7] of 0.001.

In the case of KAAMLAKFK (modifications not checked) [HPV16 E1 peptide … (position 204, 9 amino acids)], the binding affinity ratio (IC50 of standard peptide / IC50 of test peptide) [6] is reported as 0.18 and the binding affinity ratio (IC50 of standard peptide / IC50 of test peptide) [7] is reported as 0.11.

Binder NPAEKLRHL (modifications not checked) [HPV18 E6 peptide … (position 113, 9 amino acids)] has a binding affinity ratio (IC50 of standard peptide / IC50 of test peptide) [11] of 0.011, a binding affinity ratio (IC50 of standard peptide / IC50 of test peptide) [12] of 0.0002 and a binding affinity ratio (IC50 of standard peptide / IC50 of test peptide) [13] of 0.0001. It also gave a binding affinity ratio (IC50 of standard peptide / IC50 of test peptide) [14] of 0.0001 and a binding affinity ratio (IC50 of standard peptide / IC50 of test peptide) [15] of 0.0001.

Work on KPLNPAEKL (modifications not checked) [HPV18 E6 peptide … (position 110, 9 amino acids)] yielded a binding affinity ratio (IC50 of standard peptide / IC50 of test peptide) [11] of 0.035, a binding affinity ratio (IC50 of standard peptide / IC50 of test peptide) [12] of 0.0002 and a binding affinity ratio (IC50 of standard peptide / IC50 of test peptide) [13] of 0.0001. It also gave a binding affinity ratio (IC50 of standard peptide / IC50 of test peptide) [14] of 0.0001 and a binding affinity ratio (IC50 of standard peptide / IC50 of test peptide) [15] of 0.0001.

Work on VCDKCLKFY (modifications not checked) [… (HPV16 E6, position 69, 9 amino acids)] yielded a relative binding ratio (IC50 of standard peptide / IC50 of test peptide) [4] of 0.0002 and a relative binding ratio (IC50 of standard peptide / IC50 of test peptide) [5] of 0.0017.

NTGLYNLLIR (modifications not checked) [HPV18 E6 95-104 peptide …] was tested, and the relative binding ratio (IC50 of standard peptide / IC50 of test peptide) [1] was 0.0013.

LPQLCTEL (modifications not checked) [HPV16 E6 19 LPQLCTEL] was tested, and the binding affinity ratio (IC50 of standard peptide / IC50 of test peptide) [16] was 0.0055.

In the case of ETTDLYCY (modifications not checked) [ETTDLYCY (HPV16 E7, position 18, 8 amino acids)], the relative binding ratio (IC50 of standard peptide / IC50 of test peptide) [4, 17] is reported as 0.0001 and the relative binding ratio (IC50 of standard peptide / IC50 of test peptide) [5, 17] is reported as 0.078.

Binder RFHNIAGHYR (modifications not checked) [HPV18 E6 126-135 peptide …] has a relative binding ratio (IC50 of standard peptide / IC50 of test peptide) [1] of 0.0057.

PPKLRSTAA (modifications not checked) [HPV16 E1 309 …] was tested, and the binding affinity ratio (IC50 of standard peptide / IC50 of test peptide) [16] was 0.0014.
